± gives the standard deviation of the averaged measurements.
System: ATP
Assay: switch fluorescence ratio, 500 uM ATP over buffer (Cy3 cluster intensity, sum of 5 cycles each) (fold (ratio)); higher = stronger signal-on switching upon ATP binding; sequences stand for … in TCGTCGGCAGCGTCAGATGTGTATAAGAGACAGTTTTTTTTTTTTTTTTTTTTTTTTT…TC
Conditions: aptamer strand: ATP DNA aptamer (quencher-CACCTGGGGGAGTATTGCGGAGGAAGG + anchor), 100 nM annealed; ATP concentration: 500 uM
Procedure, shortened: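 The fluorescence ratio divides summed target-cycle Cy3 intensity by summed buffer-cycle Cy3 intensity for each cluster and is averaged per switch-domain sequence. Cy3-labelled switching-strand clusters on a modified Illumina MiSeq flow-cell were annealed to 100 nM quencher-labelled ATP aptamer, then imaged in selection buffer and again after 15 min with 500 uM ATP at 22 °C. Five such cycles were run, with NaOH stripping and re-annealing between them, and clusters outside 100-1000 RFU were excluded.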
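Further: ATP exposure 15 min at 22 °C before imaging.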

For TGGGGTAGCT, the switch fluorescence ratio was 0.997 ± 0.015.
For TGGGGTAGGC, the switch fluorescence ratio was 1.02 ± 0.034.
With TGGGGTCAGC the switch fluorescence ratio was 1.001 ± 0.0097.
For TGGGGTCGCT, the switch fluorescence ratio was 0.9829 ± 0.001.
TGGGGTTAAG gave a switch fluorescence ratio of 0.977 ± 0.025.
TGGGGTTAAT was tested, and the switch fluorescence ratio was 0.997 ± 0.028.
With TGGGGTTAGT the switch fluorescence ratio was 0.979 ± 0.014.
Work on TGGGGTTATT yielded a switch fluorescence ratio of 0.974 ± 0.0098.
Work on TGGGGTTCAG yielded a switch fluorescence ratio of 1.01 ± 0.019.
Work on TGGGGTTCTT yielded a switch fluorescence ratio of 0.993 ± 0.034.
With TGGGGTTGCG the switch fluorescence ratio was 0.981 ± 0.032.
For TGGGGTTTAG, the switch fluorescence ratio was 0.99 ± 0.024.
TGGGTAAAAA gave a switch fluorescence ratio of 0.995 ± 0.014.
For TGGGTAAAGA, the switch fluorescence ratio was 0.981 ± 0.049.
Work on TGGGTAAGGG yielded a switch fluorescence ratio of 1.01 ± 0.03.
TGGGTAATGG was tested, and the switch fluorescence ratio was 1.01 ± 0.038.
For TGGGTACGCA, the switch fluorescence ratio was 1.03 ± 0.027.
For TGGGTAGAAG, the switch fluorescence ratio was 0.9916 ± 0.0014.
Work on TGGGTAGGAG yielded a switch fluorescence ratio of 0.987 ± 0.025.
TGGGTAGGGG gave a switch fluorescence ratio of 0.985 ± 0.025.
TGGGTAGTAC showed a switch fluorescence ratio of 1.04 ± 0.039.
TGGGTAGTAT was tested, and the switch fluorescence ratio was 0.977 ± 0.012.
Sequence TGGGTATGG has a switch fluorescence ratio of 1.07 ± 0.072.
Work on TGGGTCAGTG yielded a switch fluorescence ratio of 1 ± 0.021.
TGGGTCCGTG was tested, and the switch fluorescence ratio was 0.963 ± 0.033.
For TGGGTCGGGT, the switch fluorescence ratio was 0.9817 ± 0.0088.
In the case of TGGGTCTTTT, the switch fluorescence ratio is reported as 1.01 ± 0.054.
With TGGGTGACGG the switch fluorescence ratio was 0.958 ± 0.036.
TGGGTGAGAT gave a switch fluorescence ratio of 1.01 ± 0.032.
In the case of TGGGTGAGCT, the switch fluorescence ratio is reported as 1.01 ± 0.036.
For TGGGTGAGGG, the switch fluorescence ratio was 1 ± 0.0037.
For TGGGTGATAT, the switch fluorescence ratio was 0.989 ± 0.018.
TGGGTGCACG gave a switch fluorescence ratio of 0.996 ± 0.057.
With TGGGTGCATG the switch fluorescence ratio was 0.9897 ± 0.0049.
With TGGGTGCCGG the switch fluorescence ratio was 0.929 ± 0.11.
With TGGGTGGCGA the switch fluorescence ratio was 1.02 ± 0.043.
For TGGGTGGCGG, the switch fluorescence ratio was 0.945 ± 0.052.
Sequence TGGGTGTCTG has a switch fluorescence ratio of 0.9826 ± 0.0043.
TGGGTTACGA gave a switch fluorescence ratio of 1.04 ± 0.035.
In the case of TGGGTTAGAT, the switch fluorescence ratio is reported as 0.976 ± 0.025.
In the case of TGGGTTATAG, the switch fluorescence ratio is reported as 0.9786 ± 0.0038.
TGGGTTATGG gave a switch fluorescence ratio of 0.972 ± 0.016.
In the case of TGGGTTATTT, the switch fluorescence ratio is reported as 1 ± 0.038.
For TGGGTTCGAG, the switch fluorescence ratio was 1.005 ± 0.0097.
TGGGTTGGGT gave a switch fluorescence ratio of 0.993 ± 0.022.
TGGGTTGGTT was tested, and the switch fluorescence ratio was 1 ± 0.036.
TGGGTTGTTG was tested, and the switch fluorescence ratio was 0.985 ± 0.038.
TGGGTTTACG was tested, and the switch fluorescence ratio was 1.03 ± 0.029.
TGGGTTTAGG gave a switch fluorescence ratio of 1.02 ± 0.025.
TGGGTTTGC showed a switch fluorescence ratio of 0.98 ± 0.054.
TGGGTTTGCT gave a switch fluorescence ratio of 1.001 ± 0.0063.
With TGGGTTTGTA the switch fluorescence ratio was 0.984 ± 0.019.
For TGGTAAAAAG, the switch fluorescence ratio was 1.025 ± 0.0047.
Sequence TGGTAAAAGG has a switch fluorescence ratio of 0.991 ± 0.038.
TGGTAAAGTA gave a switch fluorescence ratio of 0.991 ± 0.02.
Sequence TGGTACCTTG has a switch fluorescence ratio of 1.19 ± 0.26.
TGGTACGGGT showed a switch fluorescence ratio of 1.03 ± 0.011.
TGGTAGAGAG gave a switch fluorescence ratio of 0.9883 ± 0.0075.
In the case of TGGTAGATT, the switch fluorescence ratio is reported as 1.01 ± 0.046.
With TGGTAGCTGT the switch fluorescence ratio was 1.01 ± 0.062.
For TGGTAGGATG, the switch fluorescence ratio was 0.964 ± 0.05.
TGGTATCGGC showed a switch fluorescence ratio of 0.992 ± 0.01.
TGGTATTGCA showed a switch fluorescence ratio of 0.999 ± 0.028.
Sequence TGGTATTTTT has a switch fluorescence ratio of 0.991 ± 0.029.
TGGTCAAAAA was tested, and the switch fluorescence ratio was 0.9972 ± 0.0036.
Sequence TGGTCATTGC has a switch fluorescence ratio of 1.064 ± 0.0086.
Work on TGGTCCAGCG yielded a switch fluorescence ratio of 0.998 ± 0.015.
With TGGTCCTCCG the switch fluorescence ratio was 1.87 ± 0.31.
Sequence TGGTCGGCAA has a switch fluorescence ratio of 1.045 ± 0.0081.
For TGGTCTAGGT, the switch fluorescence ratio was 1.01 ± 0.028.
For TGGTCTGCCC, the switch fluorescence ratio was 0.975 ± 0.053.
In the case of TGGTCTTCAT, the switch fluorescence ratio is reported as 1 ± 0.022.
In the case of TGGTGAAATG, the switch fluorescence ratio is reported as 1 ± 0.013.
For TGGTGAAGGG, the switch fluorescence ratio was 0.976 ± 0.016.
With TGGTGACTTA the switch fluorescence ratio was 0.974 ± 0.039.
TGGTGAGGGT was tested, and the switch fluorescence ratio was 0.999 ± 0.025.
TGGTGATGGC was tested, and the switch fluorescence ratio was 0.991 ± 0.012.
TGGTGATGGT was tested, and the switch fluorescence ratio was 1.03 ± 0.058.
With TGGTGCACC the switch fluorescence ratio was 0.983 ± 0.042.
TGGTGCCCCA gave a switch fluorescence ratio of 1.03 ± 0.023.
For TGGTGCGGGG, the switch fluorescence ratio was 0.999 ± 0.026.
TGGTGGCCGC gave a switch fluorescence ratio of 0.982 ± 0.032.
For TGGTGGGATG, the switch fluorescence ratio was 0.977 ± 0.021.
Work on TGGTGGGATT yielded a switch fluorescence ratio of 0.995 ± 0.012.
Work on TGGTGGGGGC yielded a switch fluorescence ratio of 1 ± 0.052.
Work on TGGTGGGTGT yielded a switch fluorescence ratio of 0.987 ± 0.024.
In the case of TGGTGGGTTC, the switch fluorescence ratio is reported as 1.03 ± 0.067.
With TGGTGGTGGT the switch fluorescence ratio was 1.01 ± 0.033.
With TGGTGGTTTT the switch fluorescence ratio was 1.03 ± 0.025.
Work on TGGTGTATGT yielded a switch fluorescence ratio of 0.995 ± 0.022.
Work on TGGTGTGGAG yielded a switch fluorescence ratio of 1.062 ± 0.006.
TGGTGTTGGA gave a switch fluorescence ratio of 0.9906 ± 0.0068.
In the case of TGGTTACCGA, the switch fluorescence ratio is reported as 1 ± 0.014.
In the case of TGGTTACTGT, the switch fluorescence ratio is reported as 1.02 ± 0.022.
For TGGTTAGGGG, the switch fluorescence ratio was 1.06 ± 0.084.
TGGTTAGTTT was tested, and the switch fluorescence ratio was 0.997 ± 0.016.
For TGGTTATATT, the switch fluorescence ratio was 1.02 ± 0.026.
TGGTTCCCAG gave a switch fluorescence ratio of 1.04 ± 0.031.
In the case of TGGTTCGCTA, the switch fluorescence ratio is reported as 1.02 ± 0.013.
In the case of TGGTTCGGAA, the switch fluorescence ratio is reported as 1.016 ± 0.0048.

From the supplement of paper PMC10126150
